Biological target: EPHB1 (UniProt P54762)
Assay: phosphorylation enrichment, bacterial display (enrichment ratio); higher = better substrate or ligand; peptides without Tyr show the background
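Further: 11-residue human phosphosite peptides and single-mutation variants displayed on the E. coli surface, counted by deep sequencing, each peptide's frequency after selection divided by its frequency in the unselected input library; frequency after pTyr selection over input frequency; kinase dosed for 20-30% of maximal phosphorylation in three min.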

Chain of EPHB1 (P54762 whole entry, looked up): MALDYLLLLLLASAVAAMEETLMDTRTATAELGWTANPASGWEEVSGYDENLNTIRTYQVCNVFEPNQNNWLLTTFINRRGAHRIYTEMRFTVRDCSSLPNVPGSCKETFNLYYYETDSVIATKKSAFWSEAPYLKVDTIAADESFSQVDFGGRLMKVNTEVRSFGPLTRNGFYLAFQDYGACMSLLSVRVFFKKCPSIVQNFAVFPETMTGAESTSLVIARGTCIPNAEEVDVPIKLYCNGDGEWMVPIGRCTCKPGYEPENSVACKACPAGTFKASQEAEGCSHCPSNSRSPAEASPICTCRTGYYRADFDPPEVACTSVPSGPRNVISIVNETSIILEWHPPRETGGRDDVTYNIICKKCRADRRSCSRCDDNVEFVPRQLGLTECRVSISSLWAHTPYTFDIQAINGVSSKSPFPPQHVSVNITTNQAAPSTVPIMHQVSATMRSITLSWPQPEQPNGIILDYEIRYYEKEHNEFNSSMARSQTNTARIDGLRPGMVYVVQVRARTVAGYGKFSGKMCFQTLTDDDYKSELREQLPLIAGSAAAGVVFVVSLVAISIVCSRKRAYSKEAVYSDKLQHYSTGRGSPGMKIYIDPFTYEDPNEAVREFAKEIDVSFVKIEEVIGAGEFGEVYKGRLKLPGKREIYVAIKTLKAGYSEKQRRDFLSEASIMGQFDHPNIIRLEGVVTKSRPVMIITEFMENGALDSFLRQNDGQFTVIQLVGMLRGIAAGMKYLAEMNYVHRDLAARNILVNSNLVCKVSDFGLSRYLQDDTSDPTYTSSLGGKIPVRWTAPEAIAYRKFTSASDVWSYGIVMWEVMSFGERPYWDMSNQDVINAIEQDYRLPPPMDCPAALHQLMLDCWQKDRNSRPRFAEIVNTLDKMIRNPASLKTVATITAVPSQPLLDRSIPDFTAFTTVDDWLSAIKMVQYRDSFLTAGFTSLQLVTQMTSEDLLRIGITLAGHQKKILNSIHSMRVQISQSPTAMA

Sequence | phosphorylation enrichment
QITQVYGFYHE [PPP2CA_Y127_D131H] | 0.66
LPKVSCVKAID [GLRA1_Y307_Y307C] | 0.794
SNKLTYGTVVF [ACOX1_Y275_M278V] | 0.524
EALDFYGELRT [PTEN_Y155_V158L] | 0.771
WRGMPYGGRGD [TGM1_Y312_R307W] | 0.34
ALEKTYNTFRS [B4GALNT2_Y538_YF] | 0.351
GFSRHCEDGFP [CTNND1_Y217_Y217C_YF] | 0.497
DFDHSYFFIAT [ESD_Y262_G257D_YF] | 0.717
FLAVGYHKPRI [IDS_Y225_H229R] | 0.477
YGMSTYITRED [FNDC3B_Y180] | 0.712
RGVAHYILQTF [SLC39A4_Y359_T357A] | 0.718
MNKNAYHNVTT [ST3GAL6_Y306_A311T] | 0.358
TNLVPYTRIHF [TUBA1A_Y262_P263T] | 0.455
FTNELYMMMRD [FGFR1_Y730_C725Y_YF] | 3.18
QGIIIYKAAYF [SLC25A4_Y187_R188K] | 0.94
GTFEDYVEGLR [MYL6_Y89_YF] | 0.534
FRQLPYCPSVE [CTNND2_Y508_Q507P_YF] | 0.647

Sequence | phosphorylation enrichment
HLVLNYGVCFC [JAK2_Y613_V617F] | 1.67
IEELTYVIKQD [STX5_Y137_I138V] | 0.643
IEDNEYTAREG [HCK_Y411] | 0.637
EYRFIYMAVQH [PTPN11_Y515_Q510E] | 1.96
SDTGQYQCLVF [AXL_Y115] | 0.867
ALVLQYLRVPL [F9_Y371] | 0.61
RSGIFYKPESL [L2HGDH_Y103_H98R_YF] | 0.547
EEALHYLTRVE [SET_Y119] | 0.73
DKATEYSQFMR [MAX_Y70_I71S_YF] | 0.39
SHNKFYMLVAH [MFSD8_Y134_R139H_YF] | 0.865
LSDGPYSSPYE [EPOR_Y485_N487S] | 1.2
RDLRTYIMPAH [PNMT_Y256] | 5.27
KINKMYSDHAM | 0.351
VCHELYNTIRD [PBRM1_Y54] | 0.546
TLSGTYQFIIA [FOXL2_Y81_I80T_YF] | 1.31
ETLLYYGYRRS [POR_Y564_C566Y] | 1.21

Test system: c-Src
Assay: as above

Sequence | phosphorylation enrichment
QITQVYGFYHE [PPP2CA_Y127_D131H] | 8.14
LPKVSCVKAID [GLRA1_Y307_Y307C] | 0.386
SNKLTYGTVVF [ACOX1_Y275_M278V] | 5.78
EALDFYGELRT [PTEN_Y155_V158L] | 0.805
WRGMPYGGRGD [TGM1_Y312_R307W] | 0.419
ALEKTYNTFRS [B4GALNT2_Y538_YF] | 1.78
GFSRHCEDGFP [CTNND1_Y217_Y217C_YF] | 0.441
DFDHSYFFIAT [ESD_Y262_G257D_YF] | 0.738
FLAVGYHKPRI [IDS_Y225_H229R] | 0.305
YGMSTYITRED [FNDC3B_Y180] | 0.981
RGVAHYILQTF [SLC39A4_Y359_T357A] | 0.743
MNKNAYHNVTT [ST3GAL6_Y306_A311T] | 0.364
TNLVPYTRIHF [TUBA1A_Y262_P263T] | 0.441
FTNELYMMMRD [FGFR1_Y730_C725Y_YF] | 1.29
QGIIIYKAAYF [SLC25A4_Y187_R188K] | 1.06
GTFEDYVEGLR [MYL6_Y89_YF] | 0.416
FRQLPYCPSVE [CTNND2_Y508_Q507P_YF] | 0.499

Sequence | phosphorylation enrichment
HLVLNYGVCFC [JAK2_Y613_V617F] | 0.914
IEELTYVIKQD [STX5_Y137_I138V] | 0.691
IEDNEYTAREG [HCK_Y411] | 0.67
EYRFIYMAVQH [PTPN11_Y515_Q510E] | 3.46
SDTGQYQCLVF [AXL_Y115] | 1.64
ALVLQYLRVPL [F9_Y371] | 0.39
RSGIFYKPESL [L2HGDH_Y103_H98R_YF] | 0.751
EEALHYLTRVE [SET_Y119] | 0.462
DKATEYSQFMR [MAX_Y70_I71S_YF] | 0.873
SHNKFYMLVAH [MFSD8_Y134_R139H_YF] | 0.447
LSDGPYSSPYE [EPOR_Y485_N487S] | 1.09
RDLRTYIMPAH [PNMT_Y256] | 0.623
KINKMYSDHAM | 0.416
VCHELYNTIRD [PBRM1_Y54] | 1.38
TLSGTYQFIIA [FOXL2_Y81_I80T_YF] | 0.892
ETLLYYGYRRS [POR_Y564_C566Y] | 10.7

— the supplement of paper PMC10065799, “High-throughput profiling of sequence recognition by tyrosine kinases and SH2 domains using bacterial peptide display” (eLife, 2023)
